The text below walks through data of US20220259315A1.

Test [1] addresses human PD-1 (cell surface) (human) (UniProt Q15116).
For test [2] the target is unchanged. The test can be described thus: column 'Affinity (nM)'; per the footnote of Table 2, FACS staining of cell surface PD-1 on activated CD4 T cells.
Test [3] shares this target. The test can be described thus: column 'Affinity (nM)'; per the footnote of Table 2, FACS staining of cell surface PD-1 on activated CD4 T cells (Table 5 prints 0.6 for MK3575).

Sequence of human PD-1 (cell surface) (human) (Q15116 25-288 limits assumed): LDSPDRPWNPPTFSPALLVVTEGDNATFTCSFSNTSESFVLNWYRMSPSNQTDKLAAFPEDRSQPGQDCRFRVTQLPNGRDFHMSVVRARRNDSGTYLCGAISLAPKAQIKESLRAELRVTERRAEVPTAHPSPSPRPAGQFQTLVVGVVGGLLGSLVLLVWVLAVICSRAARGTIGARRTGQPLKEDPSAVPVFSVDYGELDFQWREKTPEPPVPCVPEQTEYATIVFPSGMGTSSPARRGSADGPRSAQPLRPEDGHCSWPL

The substance IgG1 control (antibody) had an EFRA, column 'Functional effect: % CFSE low CD8 T cells' in test [1] of 100%.

For the substance BMS-5C4 (antibody), in test [1], the EFRA, column 'Functional effect: % CFSE low CD8 T cells' was 175%. This substance had an Affinity in test [2] of 0.6 nM.

With MK-3475 (pembrolizumab) (antibody), the Affinity in test [3] is 0.5 nM.
